Results from the Human Domainome abundance scans (Beltran et al. 2025).

B1: Telomeric repeat-binding factor 2, residues 489 to 542; numbered along this chain, Q15554 (parent)
chain: KQKWTVEESEWVKAGVQKYGEGNWAAISKNYPFVNRTAVMIKDRWRTMKRLGMN

Variants of: B1
Assay: abundance fitness (aPCA) (normalised: wild type 0, dead -1); higher = more abundant; growth selection in yeast, the domain comes from the species named
Conditions: Homo sapiens

Abundance fitness: each site, then its substitutions
V34: C -0.123; D -0.711; F -0.129; I -0.066; E 0.005; A -0.16; H 0.032; G -0.34
A25: P -0.663; Y -0.235; H -0.127; F 0.045; G -0.13; D 0.472; I -0.217; R -0.373; M -0.018; K -0.448; W -0.146; Q 0.08; C -0.091; L -0.17; E 0.074; N 0.015
I27: L -0.457; P -0.87; R -0.788; F -0.606; A -0.862; V -0.545; M -0.561; G -0.901; H -0.235; S -1.12; T -0.533; E -0.938; W -0.919; K -0.757
Y31: D -0.499; P -0.389; S -0.729; Q -0.751; C -0.49; W -0.444; T -0.727; K -0.535; H -0.539; R -0.626; M -0.431; G -0.499; E -0.757; V -0.496; F -0.417; N -0.539
S28: C -0.17; G -0.171; K 0.114; N 0.163; W 0.036; Y -0.458; D -0.887; H 0.101; F -0.098; V 0.121; I 0.196; P -0.726; T 0.038; A 0.142; Q 0.11; M -0.568
F33: Q -0.817; W -0.166; K -0.715; L -0.65; R -0.845; P -0.871; N -0.499; S -0.972; M -0.652; I -0.834; D -1.02; C -0.899; V -0.604; H -0.212; A -0.745; T -0.826
W24: Q -0.442; S -0.226; V -1.08; E -0.585; A -0.932; L -0.858; G -0.596; I -0.291; C -0.982; D -0.72; P -0.89; R -1.15; T -0.705; K -0.788; F -0.642
N23: V -0.27; W -0.39; Y -0.539
K29: V -0.066; C 0.162; H -0.042; N 0.205; S -0.082; R -0.281; T -0.051; L -0.129; G -0.364; I -0.221; Y -0.116; W -0.54; D -0.188; M -0.091; P -0.626; A -0.256
P32: L -0.726; M -0.565; H -0.574; A -0.327; S -0.361; Y -0.864; I -0.774; F -0.746; C -0.593; K -0.316; V -0.747; G -0.429; Q -0.501; T -0.532; E -0.611; N -0.294; R -0.4
A26: L -0.022; K -0.005; N -0.656; Y -0.288; I -0.177; V -0.025; T 0.065; C 0.047; M -0.493; Q 0.078; E -0.18; W -0.545; D -0.266; S -0.068; G -0.792
N30: P -0.963; C -0.402; R -0.508; L -0.287; T -0.338; A -0.042; M -0.314; Q -0.092; K -0.16; Y -0.284; W -0.431; E 0.077; F -0.422; D -0.474; S -0.113
